# From US6514747B2 (UT-Battelle, LLC, priority 1993, dated 2003)
# What was measured:
# [1] = target: T1, human melanocortin 1 receptor (hMC1R) (Homo sapiens, UniProt Q01726); test: [Ca2+]i in HEK-293 cells transfected with hMC1R; assay type: cell-based; conditions: FIG. 48, plateau at 400 s
# T1 construct: The coding region of the human melanocortin 1, 3, and 5 receptor (hMC1R, hMC3R, and hMC5R) genes was amplified; expressed in transfected cells; host or cells: HEK-293 cells, cotransfected with pMT4 construct and pRSV-Neo, geneticin-selected clones
# Protocol: The coding region of the human melanocortin 1, 3, and 5 receptor (hMC1R, hMC3R, and hMC5R) genes was amplified by polymerase chain reaction and subcloned into the vector pMT4, and the sequence was verified. HEK-293 cells, which appear to lack endogenous melanocortin receptors (Lu et al., 1994), were cotransfected with pMT4 and pRSV-Neo by either calcium phosphate coprecipitation method or the use of Transfectam reagent (Promega). Clones were selected using 600 μg geneticin/ml. culture medium.
# [Ca^2+]i was measured in L6, A7r5, and HEK-293 cells (Zemel et al., 1995) as previously described and in 3T3-L1 cells as described by Klip and Ramlal (1987). Monolayers of nonfused L6 cells and confluent A7r5 cells after 14-16 h of starvation in a serum-free culture medium were rinsed with Hanks' balanced salt solution (HBSS), detached by incubation in 2 ml trypsin (0.05%) for 2-3 min at 37° C., and released by pipetting without trypsinization. Cells were harvested by centrifugation at 50 g and resuspended in 1 ml HBSS at a density of ˜10^6 cells/ml. For 3T3-L1 cells, monolayers of differentiated adipocytes were rinsed with serum-free DMEM and exposed to 0.05% trypsin for 3 min. The solution was decanted, and the cells were incubated for 3 min in culture medium. Cells were detached by pipetting and collected by centrifugation at 50 g. Cells were then incubated in culture medium to recover for 1 h followed by incubation in serum-free DMEM for 4 h at 37° C. in an atmosphere of 5% CO2, collected by centrifugation, and resuspended in HBSS at a density of ˜10^6 cells/ml. Cell suspensions were chilled on ice for 5 min and loaded with […] (final concn) fura 2 acetoxymethyl ester (AM; Sigma) in the dark for 20 min at 37° C. For 3T3-L1 adipocytes, the chilling step was skipped. […] [Ca^2+]i levels were then measured fluorometrically in suspensions using dual excitation (340 and 380 nm)-single emission (510 nm) fluorometry as previously described (Zemel et al., 1995). [Ca^2+]i was then calculated by the computer in the fluorometer with the equation of Grynkiewicz et al. (1985). […]
# human MSH-R = target: T2, human MSH-R (Homo sapiens, UniProt Q01726); test: activation of human MSH-R in 293 cells (adenylyl cyclase); assay type: cell-based; conditions: 0.7 nM agouti
# T2 construct: expressed in transfected cells; host or cells: human embryonic kidney 293 cells (printed '292')
# untransfected 293 cells = test: adenylyl cyclase assay in untransfected 293 cells; assay type: cell-based, human; conditions: agouti 0.7 nM
# Protocol: 293 cells (5×10^5) and 293 cells expressing human TSH-R were preloaded with 5 μCi ^3H-adenine for 1.5 h at 37° C. in a 5% CO2 incubator.
# Medium was aspirated and 2.5% perchloric acid containing 0.1 mM cAMP was used to stop the incubation. Adenylyl cyclase activity was calculated by determining the percent conversion of ^3H-adenine to ^3H-cAMP as described (Salomon, 1991; Johnson and Salomon, 1991). Correlation of cAMP accumulation measured in this assay with actual adenylyl cyclase activity is made under the assumption that isobutymethylxanthine effectively blocks cAMP degradation. Data represent means and standard deviations from triplicate data points.
# T1 sequence (Q01726 whole entry): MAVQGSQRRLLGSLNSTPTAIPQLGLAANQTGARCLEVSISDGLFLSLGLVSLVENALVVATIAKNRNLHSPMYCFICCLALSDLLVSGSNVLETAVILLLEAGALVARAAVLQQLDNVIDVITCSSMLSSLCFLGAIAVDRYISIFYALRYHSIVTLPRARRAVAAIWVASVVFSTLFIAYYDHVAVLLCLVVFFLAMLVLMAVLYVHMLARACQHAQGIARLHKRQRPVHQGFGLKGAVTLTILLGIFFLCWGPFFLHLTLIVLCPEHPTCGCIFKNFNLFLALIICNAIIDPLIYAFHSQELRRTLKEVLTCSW
# T2 sequence (Q01726 whole entry): as above
molecule,measurement,setting,value
"agouti: recombinant mouse agouti protein (131 amino acids, SEQ ID NO:2) produced with the baculovirus expression system in T. ni cells (protein, listed as Mus musculus) MDVTRLLLATLVSFLCFFTVHSHLALEETLGDDRSLRSNSSMNSLDFSSVSIVALNKKSKKISRKEAEKRKRSSKKKASMKKVARPPPPSPCVATRDSCKPPAPACCDPCASCQCRFFGSACTCRVLNPNC",Vmax of [Ca2+]i dose-response fit,[1],108.2±1.337
same,EC50,[1]; read-out: K of [Ca2+]i dose-response fit,18.4 ± 0.706 nM
same,inhibition of MSH-R activation,human MSH-R,No inhibition
same,effect on basal adenylyl cyclase levels,untransfected 293 cells,no effect
